Source: article PMC7959165 (Molecular cell, 2020)

Target: E. coli RNAP σ^70 (E. coli, UniProt P00579 1-613)
Sequence (P00579 whole entry): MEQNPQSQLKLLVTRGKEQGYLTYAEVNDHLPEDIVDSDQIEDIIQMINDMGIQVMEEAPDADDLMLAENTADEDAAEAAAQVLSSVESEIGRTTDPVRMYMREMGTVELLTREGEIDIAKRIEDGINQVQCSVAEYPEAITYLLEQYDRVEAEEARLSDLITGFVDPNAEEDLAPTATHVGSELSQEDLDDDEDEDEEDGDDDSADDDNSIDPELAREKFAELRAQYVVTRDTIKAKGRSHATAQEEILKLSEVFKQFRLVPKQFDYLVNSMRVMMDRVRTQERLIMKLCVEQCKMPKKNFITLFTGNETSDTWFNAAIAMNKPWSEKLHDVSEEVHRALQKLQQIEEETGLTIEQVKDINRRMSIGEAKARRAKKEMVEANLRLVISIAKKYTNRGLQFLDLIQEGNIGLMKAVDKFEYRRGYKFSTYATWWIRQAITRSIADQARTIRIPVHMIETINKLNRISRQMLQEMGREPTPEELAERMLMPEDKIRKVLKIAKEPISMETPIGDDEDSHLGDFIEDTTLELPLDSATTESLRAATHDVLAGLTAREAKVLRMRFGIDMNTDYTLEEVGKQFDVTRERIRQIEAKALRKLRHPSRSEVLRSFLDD

B1: E. coli stringent starvation protein A (EcSspA) (natural protein, UniProt P0ACA3 1-212, looked up)
chain: MAVAANKRSVMTLFSGPTDIYSHQVRIVLAEKGVSFEIEHVEKDNPPQDLIDLNPNQSVPTLVDRELTLWESRIIMEYLDERFPHPPLMPVYPVARGESRLYMHRIEKDWYTLMNTIINGSASEADAARKQLREELLAIAPVFGQKPYFLSDEFSLVDCYLAPLLWRLPQLGIEFSGPGAKELKGYMTRVFERDSFLASLTEAEREMRLGRS
**Q.** Does B1 bind?
**A.** binds
